According to patent EP4669671A1 (dated 2025):

Legend:
[1] = target: T1, His-tagged human IL2RA protein (ACROBiosystems Inc., Cat#: ILA-H52H9) (human, UniProt P01589 22-213, limits assumed); test: SPR (Biacore 8K), antibody captured on Protein A chip, His-tagged IL2RA as analyte
T1 construct: Bought protein; also called hIL2RA-his; not shown: His tag
T1 sequence: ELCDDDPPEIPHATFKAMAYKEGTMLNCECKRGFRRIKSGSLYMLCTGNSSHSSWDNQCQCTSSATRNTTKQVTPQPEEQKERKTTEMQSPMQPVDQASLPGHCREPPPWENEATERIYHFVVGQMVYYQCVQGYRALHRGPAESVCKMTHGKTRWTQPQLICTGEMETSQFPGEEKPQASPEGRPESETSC

[2] = target: T2, monkey (Macaca fascicularis) IL2RA expressed on CHO-S cells (CHO-S-fasIL2RA cells) (monkey (Macaca fascicularis), UniProt Q5MNY4 22-272); test: flow cytometry on CHO-S-fasIL2RA cells
T2 construct: also called monkey IL2RA
T2 chain: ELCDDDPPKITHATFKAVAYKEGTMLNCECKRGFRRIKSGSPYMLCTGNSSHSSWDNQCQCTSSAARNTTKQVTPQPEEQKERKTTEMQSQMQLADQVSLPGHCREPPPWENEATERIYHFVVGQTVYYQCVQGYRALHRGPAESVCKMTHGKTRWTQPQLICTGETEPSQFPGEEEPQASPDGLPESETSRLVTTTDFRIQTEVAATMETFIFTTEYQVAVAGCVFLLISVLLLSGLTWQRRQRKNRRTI

[3] = target: T3, human IL2RA expressed on CHO-S cells (CHO-S-hIL2RA cells) (human, UniProt P01589 22-272); test: flow cytometry on CHO-S-hIL2RA cells
T3 sequence: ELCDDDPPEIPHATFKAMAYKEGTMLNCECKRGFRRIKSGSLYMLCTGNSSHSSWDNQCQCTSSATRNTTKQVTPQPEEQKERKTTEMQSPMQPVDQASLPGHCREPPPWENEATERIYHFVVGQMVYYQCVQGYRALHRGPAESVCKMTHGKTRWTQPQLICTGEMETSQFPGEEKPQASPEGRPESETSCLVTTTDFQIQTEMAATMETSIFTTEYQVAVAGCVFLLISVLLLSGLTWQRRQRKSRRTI

Measured: binding result

B1: anti-IL2RA antibody 11C3 (antibody, V domains shown)
VH: QVQLVQSGAEVKKPGASVKVSCKASGYTFNSYYIHWVRQAPGQGLEWLGIINPTGGRTIYAQKFQGRVTMTRDTSTTTVDMELSSLRSEDTAVYYCARVPGYCKDTSCQDFYYYYGMDVWGQGSTVTVSS
VL: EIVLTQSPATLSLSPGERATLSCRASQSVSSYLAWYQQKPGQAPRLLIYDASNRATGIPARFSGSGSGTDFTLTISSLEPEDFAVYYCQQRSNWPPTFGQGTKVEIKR
binds: all assays above

B2: anti-IL2RA antibody 11C12 (antibody, V domains shown)
VH: QVQLVQSGGGLVQPGGSLRLSCSASGLTFSSYGMHWVRQAPGKGLDYVSGITNNGGRTEYADSVKGRFTISRDNSKNTLYLQMSSLRTEDTAVYYCVKEDWNGQYYYYAMDVWGQGTTVTVSS
VL: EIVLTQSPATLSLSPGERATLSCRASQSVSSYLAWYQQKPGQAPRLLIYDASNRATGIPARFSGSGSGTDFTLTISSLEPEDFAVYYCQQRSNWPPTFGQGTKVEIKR
binds: all assays above

B3: anti-IL2RA antibody 11D2 (antibody, V domains shown)
VH: QVQLVQSGGGVVQPGRSLRLSCAASGFTFTNYAIHWVRQAPGKGLEWVAVIWSDGDNKYYADSVKGRFTISRDNSKNTLYLQMNSLRAEDTAVYYCARTPWYCTSTNCYTGYYYYGMDVWGQGTTVTVSS
VL: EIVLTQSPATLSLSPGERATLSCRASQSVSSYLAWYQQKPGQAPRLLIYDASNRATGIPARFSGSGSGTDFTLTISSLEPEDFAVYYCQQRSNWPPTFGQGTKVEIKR
binds: all assays above

B4: anti-IL2RA antibody 14C2 (antibody, V domains shown)
VH: QVQLVQSGGGVVQPGRSLRLSCAASGFTFSTYGMHWVRQAPGKGLEWVAVISYDGSDKIYADSVKGRFTISRDNSKNTLFLQMNSLRAEDTAVYYCATGPMENYYYYNMDVWGLGTTVTVSS
VL: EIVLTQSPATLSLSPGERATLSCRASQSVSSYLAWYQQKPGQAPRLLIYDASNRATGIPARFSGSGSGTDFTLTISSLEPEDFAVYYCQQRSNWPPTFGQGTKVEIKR
binds: all assays above

B5: anti-IL2RA antibody 7B5 (antibody, V domains shown)
VH: EVQLQQWGAGLLKPSETLSLTCAVYGGSFSGYYWNWIRQPPGKGLEWIGESDHSGSTHFNPSLKSRVTISLDTSKNQFSLKLNSVTAADTAVYFCARAPDYGDFDHWGQGILVTVSS
VL: DIQMTQSPDSLAVSLGERATINCRSSQSVLHSSTNKRYLAWYQQKPRQPPKLLIYWTSTRESGVPDRFSGSGSGTDFTLTISSLQAEDVAVYFCQQYYSTPYTFGQGTKLEIK
binds: all assays above

B6: anti-IL2RA antibody 5D9 (antibody, V domains shown)
VH: EVQLVESGGGLVQPGGSLRLSCAASGFTVSSNYMSWVRQTPGKGLELVSFIYSGGITSYADSVRGRFTISRDNSKNTLYLQMNSLRAEDTAVYYCARDDYSNYFDYWGQGTLVTVSS
VL: DIQMTQSPSSVSASVGDRVTITCRASQGISNWLAWYQQKPGKAPKLLIFAASSLQSGVPSRFSGSGSGTDFTLTISSLQPEDFATYYCQQAKSFPITFGQGTRLEIK
notes: Variable regions were cloned into a vector with the human IgG constant region; also called 5D9-IgG1
binds: all assays above

B7: anti-IL2RA antibody 13F9 (antibody, V domains shown)
VH: QVQLVQSGAEVKRPGASVKVSCKASGYTFTTYAIHWVRQAPGQRLEWMGWINADNGYTKYSQNFQGRVTITRDTSASTAYMDLSTLRSEDTALYYCARTPRYCTSTSCSTGYYYYGMDVWGQGTTVTVSS
VL: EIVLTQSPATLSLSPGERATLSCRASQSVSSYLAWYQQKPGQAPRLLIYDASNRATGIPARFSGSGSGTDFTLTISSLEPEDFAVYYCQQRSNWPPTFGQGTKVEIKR
binds: all assays above
